Experimental data published in article PMC7687889, “Molecular basis of EphA2 recognition by gHgL from gammaherpesviruses” (Nature Communications, 2020).

Biological target: T1, KSHV glycoprotein L (gL), residues 21-167 (Kaposi sarcoma-associated herpesvirus …, UniProt F5HDB7 21-167)
T1 construct: source: High Five cells (baculovirus), secreted with gH, purified (HisTrap, Resource S, Superdex 200)
Experiment: crystal structure; KSHV gHgL-LBD complex, mixed on ice 1 h and purified on Superdex 200 Increase; 3.2 Å
Details: both partners purified

B1: KSHV glycoprotein H (gH), residues 22-698 (domain or fragment)
chain: ATGALPTTATTITRSATQLINGRTNLSIELEFNGTSFFLNWQNLLNVITEPALTELWTSAEVAEDLRVTLKKRQSLFFPNKTVVISGDGHRYTCEVPTSSQTYNITKGFNYSALPGHLGGFGINARLVLGDIFASKWSLFARDTPEYRVFYPMNVMAVKFSISIGNNESGVALYGVVSEDFVVVTLHNRSKEANETASHLLFGLPDSLPSLKGHATYDELTFARNAKYALVAILPKDSYQTLLTENYTRIFLNMTESTPLEFTRTIQTRIVSIEARRACAAQEAAPDIFLVLFQMLVAHFLVARGIAEHRFVEVDCVCRQYAELYFLRRISRLCMPTFTTVGYNHTTLGAVAATQIARVSATKLASLPRSSQETVLAMVQLGARDGAVPSSILEGIAMVVEHMYTAYTYVYTLGDTERKLMLDIHTVLTDSCPPKDSGVSEKLLRTYLMFTSMCTNIELGEMIARFSKPDSLNIYRAFSPCFLGLRYDLHPAKLRAEAPQSSALTRTAVARGTSGFAELLHALHLDSLNLIPAINCSKITADKIIATVPLPHVTYIISSEALSNAVVYEVSEIFLKSAMFISAIKPDCSGFNFSQIDRHIPIVYNISTPRRGCPLCDSVIMSYDESDGLQSLMYVTNERVQTNLFLDKSPFFDNNNLHIHYLWLRDNGTVVEIRGMY
notes: also called KSHV gH; source: High Five cells (baculovirus), secreted with gL, purified (HisTrap, Resource S, Superdex 200)
binding result: binds
